According to PMC9284966, “Construction of a T7 phage display nanobody library for bio-panning and identification of chicken dendritic cell-specific binding nanobodies” (Scientific Reports, 2022):

How the values were obtained:
Test in all cases: affinity purification with mass spectrometry; purified GST-VHH fusion protein as bait with lysate of immature chicken bone marrow DCs (day 6); in vitro pull-down, then HPLC-MS (done by ZoonBio Biotechnology)
Conditions in all cases: one partner purified
[1] = biological target: T1, Uncharacterized protein GN = LCP1 (Gallus gallus (SPF chick), UniProt Q5ZLW0)
T1 construct: Uncharacterized protein, Gallus gallus, GN = LCP1; source: endogenous, chicken bone marrow DC lysate

[2] = biological target: T2, Protein disulfide-isomerase (Gallus gallus (SPF chick), UniProt P09102)
T2 construct: Protein disulfide-isomerase, Gallus gallus, GN = P4HB; also called P4HB; source: endogenous, chicken bone marrow DC lysate
T2 sequence (P09102 23-515): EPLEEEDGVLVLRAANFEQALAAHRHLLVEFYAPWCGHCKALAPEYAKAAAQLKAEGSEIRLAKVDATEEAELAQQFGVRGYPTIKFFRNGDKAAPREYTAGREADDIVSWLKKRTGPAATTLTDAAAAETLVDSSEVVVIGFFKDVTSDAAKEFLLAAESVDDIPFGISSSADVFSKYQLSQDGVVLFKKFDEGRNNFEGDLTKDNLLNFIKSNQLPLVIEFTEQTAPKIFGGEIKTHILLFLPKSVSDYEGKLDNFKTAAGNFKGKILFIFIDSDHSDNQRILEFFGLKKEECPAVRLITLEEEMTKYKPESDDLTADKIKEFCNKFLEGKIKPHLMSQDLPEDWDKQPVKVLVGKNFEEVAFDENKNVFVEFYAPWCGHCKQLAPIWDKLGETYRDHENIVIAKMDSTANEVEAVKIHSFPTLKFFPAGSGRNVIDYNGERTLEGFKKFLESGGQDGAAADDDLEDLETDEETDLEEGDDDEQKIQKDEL

[3] = biological target: T3, Calreticulin (Gallus gallus, UniProt A0A8V0X980)
T3 construct: Calreticulin, Gallus gallus, GN = CALR; source: endogenous, chicken bone marrow DC lysate

[4] = biological target: T4, SET domain-containing protein (Gallus gallus, UniProt A0A1D5PNH9)
T4 construct: SET domain-containing protein, Gallus gallus, GN = PRDM11; also called PRDM11; source: endogenous, chicken bone marrow DC lysate
T4 sequence (A0A1D5PNH9 entry or part of it): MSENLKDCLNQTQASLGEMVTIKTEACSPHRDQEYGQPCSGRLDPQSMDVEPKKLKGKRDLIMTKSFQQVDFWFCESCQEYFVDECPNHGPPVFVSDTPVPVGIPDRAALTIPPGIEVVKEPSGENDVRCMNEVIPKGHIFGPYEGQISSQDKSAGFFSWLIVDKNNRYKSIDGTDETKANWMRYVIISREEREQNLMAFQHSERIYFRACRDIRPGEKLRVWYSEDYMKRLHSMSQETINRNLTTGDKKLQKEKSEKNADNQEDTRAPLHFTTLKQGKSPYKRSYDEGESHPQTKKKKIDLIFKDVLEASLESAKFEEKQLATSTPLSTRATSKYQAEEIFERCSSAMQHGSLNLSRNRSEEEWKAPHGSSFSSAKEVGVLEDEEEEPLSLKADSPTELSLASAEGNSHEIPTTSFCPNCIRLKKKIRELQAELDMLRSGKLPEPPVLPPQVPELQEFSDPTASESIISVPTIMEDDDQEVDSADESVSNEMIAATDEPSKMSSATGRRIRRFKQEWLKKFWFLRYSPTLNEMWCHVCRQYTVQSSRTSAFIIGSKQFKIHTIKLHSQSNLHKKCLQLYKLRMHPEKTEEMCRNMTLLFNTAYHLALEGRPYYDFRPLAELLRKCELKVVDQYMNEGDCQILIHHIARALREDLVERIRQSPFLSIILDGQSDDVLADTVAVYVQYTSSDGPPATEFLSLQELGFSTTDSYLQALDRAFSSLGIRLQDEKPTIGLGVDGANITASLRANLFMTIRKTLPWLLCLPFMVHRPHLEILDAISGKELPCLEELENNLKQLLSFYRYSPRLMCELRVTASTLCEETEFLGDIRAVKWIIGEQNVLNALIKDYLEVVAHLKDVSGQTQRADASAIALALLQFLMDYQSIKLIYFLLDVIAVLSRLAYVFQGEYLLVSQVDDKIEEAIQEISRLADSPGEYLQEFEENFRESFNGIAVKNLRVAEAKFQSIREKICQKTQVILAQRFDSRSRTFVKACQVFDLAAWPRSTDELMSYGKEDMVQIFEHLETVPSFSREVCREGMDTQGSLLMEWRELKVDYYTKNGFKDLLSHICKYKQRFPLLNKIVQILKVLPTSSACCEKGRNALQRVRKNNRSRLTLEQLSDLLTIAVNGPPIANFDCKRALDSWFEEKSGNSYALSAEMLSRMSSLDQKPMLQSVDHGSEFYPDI

[5] = biological target: T5, Extracellular serine/threonine protein kinase FAM20C isoform X1 (Gallus gallus, UniProt A0A3G2WC03)
T5 construct: Extracellular serine/threonine protein kinase FAM20C isoform X1, Gallus gallus; no GN field printed, the symbol stands in the name; source: endogenous, chicken bone marrow DC lysate

[6] = biological target: T6, Glutathione S-transferase (Gallus gallus (SPF chick), UniProt Q08392)
T6 construct: Glutathione S-transferase, Gallus gallus; no gene name printed; source: endogenous, chicken bone marrow DC lysate
T6 sequence (Q08392 whole entry): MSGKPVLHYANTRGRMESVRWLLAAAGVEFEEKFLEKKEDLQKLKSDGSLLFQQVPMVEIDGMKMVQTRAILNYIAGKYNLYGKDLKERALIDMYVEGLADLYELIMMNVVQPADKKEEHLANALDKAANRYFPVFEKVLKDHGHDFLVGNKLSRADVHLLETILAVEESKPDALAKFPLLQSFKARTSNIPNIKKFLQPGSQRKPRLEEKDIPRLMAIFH

[7] = biological target: T7, Uncharacterized protein GN = ZBTB26 (Gallus gallus, UniProt A0A1D5NTV7)
T7 construct: Uncharacterized protein, Gallus gallus, GN = ZBTB26; source: endogenous, chicken bone marrow DC lysate
T7 sequence (A0A1D5NTV7 entry or part of it): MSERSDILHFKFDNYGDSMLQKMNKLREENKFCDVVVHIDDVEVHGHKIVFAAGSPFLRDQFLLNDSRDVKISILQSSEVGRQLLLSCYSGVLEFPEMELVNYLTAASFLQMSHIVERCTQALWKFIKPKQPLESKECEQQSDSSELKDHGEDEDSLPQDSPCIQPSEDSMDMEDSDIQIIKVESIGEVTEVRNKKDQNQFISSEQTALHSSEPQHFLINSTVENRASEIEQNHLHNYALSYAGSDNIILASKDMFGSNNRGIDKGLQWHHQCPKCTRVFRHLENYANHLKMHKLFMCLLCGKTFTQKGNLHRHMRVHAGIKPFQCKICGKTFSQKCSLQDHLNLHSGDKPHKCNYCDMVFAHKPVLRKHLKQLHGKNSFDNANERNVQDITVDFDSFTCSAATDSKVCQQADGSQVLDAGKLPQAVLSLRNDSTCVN

[8] = biological target: T8, BTB domain-containing protein (Gallus gallus, UniProt A0A1D5NYT7)
T8 construct: BTB domain-containing protein, Gallus gallus, GN = KLHL26; also called KLHL26; source: endogenous, chicken bone marrow DC lysate
T8 sequence (A0A1D5NYT7 entry or part of it): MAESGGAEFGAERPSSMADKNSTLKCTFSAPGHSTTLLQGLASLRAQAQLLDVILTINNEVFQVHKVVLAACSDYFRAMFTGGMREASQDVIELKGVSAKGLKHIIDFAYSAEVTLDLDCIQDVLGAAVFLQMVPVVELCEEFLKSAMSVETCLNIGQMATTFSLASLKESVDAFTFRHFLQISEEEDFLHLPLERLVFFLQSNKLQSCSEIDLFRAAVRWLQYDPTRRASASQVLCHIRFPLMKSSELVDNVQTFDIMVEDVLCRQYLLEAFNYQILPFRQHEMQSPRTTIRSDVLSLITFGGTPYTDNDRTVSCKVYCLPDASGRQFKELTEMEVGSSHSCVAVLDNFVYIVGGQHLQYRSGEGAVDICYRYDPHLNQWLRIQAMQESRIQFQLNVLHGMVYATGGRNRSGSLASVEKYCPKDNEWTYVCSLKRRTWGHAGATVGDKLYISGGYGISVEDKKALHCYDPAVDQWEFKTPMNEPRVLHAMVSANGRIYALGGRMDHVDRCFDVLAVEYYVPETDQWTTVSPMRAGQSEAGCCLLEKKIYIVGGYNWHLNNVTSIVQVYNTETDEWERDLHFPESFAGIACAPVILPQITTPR

[9] = biological target: T9, E3 ubiquitin-protein ligase TRIM71 (Gallus gallus (SPF chick), UniProt Q1PRL4)
T9 construct: E3 ubiquitin-protein ligase TRIM71, Gallus gallus, GN = TRIM71; source: endogenous, chicken bone marrow DC lysate
T9 sequence (Q1PRL4 whole entry): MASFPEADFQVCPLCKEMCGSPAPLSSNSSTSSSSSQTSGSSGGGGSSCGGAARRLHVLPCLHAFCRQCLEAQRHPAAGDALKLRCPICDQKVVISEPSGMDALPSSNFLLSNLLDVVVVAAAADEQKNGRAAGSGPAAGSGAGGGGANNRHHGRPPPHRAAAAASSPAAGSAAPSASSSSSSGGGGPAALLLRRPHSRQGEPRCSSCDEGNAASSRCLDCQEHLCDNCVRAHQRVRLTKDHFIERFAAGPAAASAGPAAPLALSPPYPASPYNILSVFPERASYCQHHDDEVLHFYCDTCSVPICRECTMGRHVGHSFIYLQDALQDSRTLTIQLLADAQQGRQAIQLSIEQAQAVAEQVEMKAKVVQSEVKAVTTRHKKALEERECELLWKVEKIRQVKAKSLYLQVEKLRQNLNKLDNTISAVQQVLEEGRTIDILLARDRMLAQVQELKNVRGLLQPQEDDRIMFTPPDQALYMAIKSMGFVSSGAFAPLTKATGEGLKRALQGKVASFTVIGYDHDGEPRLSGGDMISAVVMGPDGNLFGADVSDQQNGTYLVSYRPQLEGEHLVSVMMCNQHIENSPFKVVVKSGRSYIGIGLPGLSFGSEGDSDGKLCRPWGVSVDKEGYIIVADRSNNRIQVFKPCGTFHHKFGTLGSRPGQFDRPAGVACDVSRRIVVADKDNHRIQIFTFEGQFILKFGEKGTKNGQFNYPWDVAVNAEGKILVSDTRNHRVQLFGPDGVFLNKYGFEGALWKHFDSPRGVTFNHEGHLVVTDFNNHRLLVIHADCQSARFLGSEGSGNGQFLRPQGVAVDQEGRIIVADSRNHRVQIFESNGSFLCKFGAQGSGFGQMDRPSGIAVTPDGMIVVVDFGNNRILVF

[10] = biological target: T10, Uncharacterized protein GN = ERCC5 (Gallus gallus (SPF chick), UniProt F1P266)
T10 construct: Uncharacterized protein, Gallus gallus, GN = ERCC5; source: endogenous, chicken bone marrow DC lysate

[11] = biological target: T11, RanGAP1_C domain-containing protein (Gallus gallus, UniProt A0A8V0YG17)
T11 construct: RanGAP1_C domain-containing protein, Gallus gallus, GN = RANGAP1; source: endogenous, chicken bone marrow DC lysate

[12] = biological target: T12, RING-type E3 ubiquitin transferase (Gallus gallus (endogenous, immature …, UniProt A0A8V0YPN2))
T12 construct: RING-type E3 ubiquitin transferase, Gallus gallus, GN = UHRF2; also called UHRF2; source: endogenous, chicken bone marrow DC lysate

[13] = biological target: T13, zf-C2H2_7 domain-containing protein (Gallus gallus (SPF chick), UniProt A0A8V0Z1I9)
T13 construct: zf-C2H2_7 domain-containing protein, Gallus gallus, GN = PRR35; also called PRR35; source: endogenous, chicken bone marrow DC lysate

[14] = biological target: T14, Voltage-dependent anion-selective channel protein 1 (Gallus gallus, UniProt E1BYN7)
T14 construct: Voltage-dependent anion-selective channel protein 1, Gallus gallus, GN = VDAC1; also called VDAC1; VDAC; source: endogenous, chicken bone marrow DC lysate

[15] = biological target: T15, UBX domain-containing protein 2B (Gallus gallus, UniProt A0A1D5P1A7)
T15 construct: UBX domain-containing protein 2B, Gallus gallus, GN = UBXN2B; also called UBXN2B; source: endogenous, chicken bone marrow DC lysate

[16] = biological target: T16, Uncharacterized protein GN = RAP1A (Gallus gallus (SPF chick), UniProt F1NSA8)
T16 construct: Uncharacterized protein, Gallus gallus, GN = RAP1A; source: endogenous, chicken bone marrow DC lysate
T16 sequence (F1NSA8 entry or part of it): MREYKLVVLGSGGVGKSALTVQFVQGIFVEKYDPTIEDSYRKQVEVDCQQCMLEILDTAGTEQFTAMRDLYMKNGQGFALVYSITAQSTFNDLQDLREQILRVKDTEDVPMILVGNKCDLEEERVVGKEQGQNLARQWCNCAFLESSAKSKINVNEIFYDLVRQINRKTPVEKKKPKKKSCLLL

[17] = biological target: T17, Uncharacterized protein GN = GPC2 (Gallus gallus (SPF chick), UniProt A0A8V0ZXK1)
T17 construct: Uncharacterized protein, Gallus gallus, GN = GPC2; source: endogenous, chicken bone marrow DC lysate

[18] = biological target: T18, Collagen alpha-2(VI) chain (Gallus gallus (SPF chick), UniProt P15988)
T18 construct: Collagen alpha-2(VI) chain, Gallus gallus, GN = COL6A2; also called COL6A2; source: endogenous, chicken bone marrow DC lysate
T18 sequence (P15988 28-1022): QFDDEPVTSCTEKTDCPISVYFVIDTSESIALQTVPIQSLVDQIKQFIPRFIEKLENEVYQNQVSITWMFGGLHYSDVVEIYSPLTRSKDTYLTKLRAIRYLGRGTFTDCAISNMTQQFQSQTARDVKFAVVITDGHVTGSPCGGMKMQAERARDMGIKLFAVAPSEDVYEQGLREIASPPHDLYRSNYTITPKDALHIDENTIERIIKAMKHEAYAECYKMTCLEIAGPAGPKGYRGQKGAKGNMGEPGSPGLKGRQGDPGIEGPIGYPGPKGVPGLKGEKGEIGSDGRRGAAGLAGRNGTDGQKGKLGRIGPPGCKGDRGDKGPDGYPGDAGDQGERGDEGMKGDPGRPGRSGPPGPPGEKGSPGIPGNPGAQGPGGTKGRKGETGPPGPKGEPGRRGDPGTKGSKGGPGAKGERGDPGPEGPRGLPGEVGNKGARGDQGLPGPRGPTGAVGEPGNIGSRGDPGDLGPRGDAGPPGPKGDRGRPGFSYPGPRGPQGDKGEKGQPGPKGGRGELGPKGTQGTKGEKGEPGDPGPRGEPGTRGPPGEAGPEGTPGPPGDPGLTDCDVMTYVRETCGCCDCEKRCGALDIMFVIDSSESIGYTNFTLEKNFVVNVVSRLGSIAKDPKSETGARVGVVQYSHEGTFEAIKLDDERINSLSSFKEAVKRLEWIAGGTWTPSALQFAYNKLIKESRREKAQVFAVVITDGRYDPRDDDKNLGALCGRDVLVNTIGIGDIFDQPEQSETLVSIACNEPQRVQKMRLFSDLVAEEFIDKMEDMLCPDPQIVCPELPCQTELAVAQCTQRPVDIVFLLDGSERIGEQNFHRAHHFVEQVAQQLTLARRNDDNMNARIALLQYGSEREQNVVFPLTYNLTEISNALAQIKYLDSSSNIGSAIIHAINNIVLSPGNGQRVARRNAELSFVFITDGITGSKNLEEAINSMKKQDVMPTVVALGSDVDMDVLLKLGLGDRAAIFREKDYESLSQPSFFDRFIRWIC

Measured: binding result

B1: GST-VHH-54 (VHH)
VHH: QVQLVESGGGLVQPGGSLTLSCAASGFTFSKYPMTWVRQAPGKGLEWVSTITSGGTTTYADSVKGRFTISRDNAKDTLYLQMNSLKPEDTAIYYCAELGLPPGGQGTQVTVSS
notes: VHH from a non-immunised alpaca library; VHH gene of phage-54 fused with the GST gene in pGEX-4T-1; also called VVH-54; VVH54; source: expressed from pGEX-4T-1 and purified
binds: [1] | [2] | [3] | [4] | [5] | [6] | [7] | [8] | [9] | [10]

B2: GST-VHH-74 (VHH)
VHH: QVQLVESGGGLVQEGGSLRLSCVVSGSRDSINAMGWYRQAPGKQRELVATVAGVGSTNYAASVKGRFSISMDNAKNTAYLQMNSLKPEDTAVYYCVADLRGSDRWLWAQGTQVTVSA
notes: VHH from a non-immunised alpaca library; VHH gene of phage-74 fused with the GST gene in pGEX-4T-1; also called VVH-74; source: expressed from pGEX-4T-1 and purified
binds: [11] | [12] | [13] | [14] | [15] | [16] | [17] | [18]
